The text below walks through data of JP2008194054A (dated 2008).

Experiment [1] concerns the target T1, 精製連鎖球菌抗原(SA)I/II (Streptococcus mutans, UniProt P23504 39-1532).
T1 construct: Purified antigen; also called 固定化精製連鎖球菌抗原
T1 sequence (looked up): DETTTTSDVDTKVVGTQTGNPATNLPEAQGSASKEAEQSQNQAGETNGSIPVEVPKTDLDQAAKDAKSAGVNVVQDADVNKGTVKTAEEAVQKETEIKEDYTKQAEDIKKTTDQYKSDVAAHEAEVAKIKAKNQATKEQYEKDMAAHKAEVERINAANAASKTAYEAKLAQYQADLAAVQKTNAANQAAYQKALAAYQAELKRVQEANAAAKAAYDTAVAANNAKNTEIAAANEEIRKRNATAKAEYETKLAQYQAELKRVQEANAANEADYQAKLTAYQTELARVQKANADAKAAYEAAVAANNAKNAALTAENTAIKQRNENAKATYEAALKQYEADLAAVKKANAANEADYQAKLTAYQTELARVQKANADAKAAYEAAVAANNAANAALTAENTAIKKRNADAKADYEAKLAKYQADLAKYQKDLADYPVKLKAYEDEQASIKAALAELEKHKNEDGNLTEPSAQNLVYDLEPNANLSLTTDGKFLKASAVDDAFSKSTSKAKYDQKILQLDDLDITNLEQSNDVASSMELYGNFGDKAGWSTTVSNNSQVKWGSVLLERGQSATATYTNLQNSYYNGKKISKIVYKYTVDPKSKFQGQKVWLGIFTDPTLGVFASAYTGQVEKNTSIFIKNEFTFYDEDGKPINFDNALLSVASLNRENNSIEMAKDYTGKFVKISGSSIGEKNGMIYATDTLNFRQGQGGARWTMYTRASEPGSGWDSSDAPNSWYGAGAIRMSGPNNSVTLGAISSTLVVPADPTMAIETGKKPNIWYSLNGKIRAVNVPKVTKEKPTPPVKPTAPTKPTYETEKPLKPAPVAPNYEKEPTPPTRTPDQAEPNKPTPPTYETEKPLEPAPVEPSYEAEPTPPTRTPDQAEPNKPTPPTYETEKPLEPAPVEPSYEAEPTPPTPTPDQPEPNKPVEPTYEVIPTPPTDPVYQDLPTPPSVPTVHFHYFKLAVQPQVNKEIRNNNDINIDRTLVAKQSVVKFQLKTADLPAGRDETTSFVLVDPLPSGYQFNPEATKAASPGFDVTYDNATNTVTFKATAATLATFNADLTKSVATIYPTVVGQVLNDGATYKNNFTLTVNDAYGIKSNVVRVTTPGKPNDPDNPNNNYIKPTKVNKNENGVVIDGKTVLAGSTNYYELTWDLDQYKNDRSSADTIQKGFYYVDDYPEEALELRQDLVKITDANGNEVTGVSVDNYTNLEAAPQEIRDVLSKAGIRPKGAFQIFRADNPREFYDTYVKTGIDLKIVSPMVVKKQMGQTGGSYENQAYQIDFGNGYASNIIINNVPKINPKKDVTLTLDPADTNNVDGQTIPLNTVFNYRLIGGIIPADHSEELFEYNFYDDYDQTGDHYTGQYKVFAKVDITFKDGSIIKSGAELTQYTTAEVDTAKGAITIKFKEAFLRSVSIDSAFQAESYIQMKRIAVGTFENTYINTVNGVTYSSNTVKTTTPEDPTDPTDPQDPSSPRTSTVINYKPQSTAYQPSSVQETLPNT
Briefly: competition ELISA on purified SA I/II; competitor 125I-labelled mouse Guy's13.

Experiment [2] has as its target T1, 精製連鎖球菌抗原(SA)I/II. The experiment can be described thus: ELISA on SA I/II, plant extracts. (An ELISA detects its analyte on a solid surface through an enzyme-linked reagent.)

Some results are limits rather than exact numbers.

In experiment [1], “植物G1/A (Guy's13可変領域−(IgG1 CH1)−(IgA CH2)−(IgA CH3) ハイブリッド重鎖とカッパ鎖) (from UniProt P01878 101-344) (antibody)” showed a 標識マウスGuy's13の阻害% of less than 85%.

Molecule “植物G13 (本来のガンマ重鎖のGuy's13IgG、タバコで発現) (antibody)” displayed a 標識マウスGuy's13の阻害% in experiment [1] of less than 85%.

On to “植物G2/A (var−γ1−γ2−α2−α3ドメインを含むIgG/IgAハイブリッド重鎖のGuy's13) (from UniProt P01878 101-344) (antibody)”, for which the 標識マウスGuy's13の阻害% in experiment [1] was less than 85%.

B1: マウスJ鎖 (J鎖のみを発現する植物) (other, mouse, UniProt P01592 22-159, looked up)
chain: GDDEATILADNKCMCTRVTSRIIPSTEDPNEDIVERNIRIVVPLNNRENISDPTSPLRRNFVYHLSDVCKKCDPVEVELEDQVVTATQSNICNEDDGVPETCYMYDRNKCYTTMVPLRYHGETKMVQAALTPDSCYPD
notes: Tested as extract of tobacco plants that express J chain only, or by co-expression
For B1, the binding result in experiment [2] is reported as “no binding”.
